Laboratory results taken from patent US5912120A, “Cloning, expression and diagnosis of human cytochrome P450 2C19: the principal determinant of s-mephenytoin metabolism” (The United States of America as represented by the …, priority 1994, dated 1999).

B1: 2C19 (11a): recombinant human cytochrome P450 2C19, clone 11a, amino acid sequence SEQ. ID. No. 1, expressed in yeast (protein)
chain: MDPFVVLVLCLSCLLLLSIWRQSSGRGKLPPGPTPLPVIGNILQIDIKDVSKSLTNLSKIYGPVFTLYFGLERMVVLHGYEVVKEALIDLGEEFSGRGHFPLAERANRGFGIVFSNGKRWKEIRRFSLMTLRNFGMGKRSIEDRVQEEARCLVEELRKTKASPCDPTFILGCAPCNVICSIIFQKRFDYKDQQFLNLMEKLNENIRIVSTPWIQICNNFPTIIDYFPGTHNKLLKNLAFMESDILEKVKEHQESMDINNPRDFIDCFLIKMEKEKQNQQSEFTIENLVITAADLLGAGTETTSTTLRYALLLLLKHPEVTAKVQEEIERVIGRNRSPCMQDRGHMPYTDAVVHEVQRYIDLIPTSLPHAVTCDVKFRNYLIPKGTTILTSLTSVLHDNKEFPNPEMFDPRHFLDEGGNFKKSNYFMPFSAGKRICVGEGLARMELFLFLTFILQNFNLKSLIDPKDLDTTPVVNGFASVPPFYQLCFIPV
B2: 2C9-Ile^359 (65): recombinant human P450 2C9 allelic variant, clone 65, expressed in yeast (protein, UniProt P11712 1-490, looked up)
Cytochrome P450 2C9: MDSLVVLVLCLSCLLLLSLWRQSSGRGKLPPGPTPLPVIGNILQIGIKDISKSLTNLSKVYGPVFTLYFGLKPIVVLHGYEAVKEALIDLGEEFSGRGIFPLAERANRGFGIVFSNGKKWKEIRRFSLMTLRNFGMGKRSIEDRVQEEARCLVEELRKTKASPCDPTFILGCAPCNVICSIIFHKRFDYKDQQFLNLMEKLNENIKILSSPWIQICNNFSPIIDYFPGTHNKLLKNVAFMKSYILEKVKEHQESMDMNNPQDFIDCFLMKMEKEKHNQPSEFTIESLENTAVDLFGAGTETTSTTLRYALLLLLKHPEVTAKVQEEIERVIGRNRSPCMQDRSHMPYTDAVVHEVQRYIDLLPTSLPHAVTCDIKFRNYLIPKGTTILISLTSVLHDNKEFPNPEMFDPHHFLDEGGNFKKSKYFMPFSAGKRICVGEALAGMELFLFLTSILQNFNLKSLVDPKNLDTTPVVNGFASVPPFYQLCFIPV
B3: 2C8: recombinant human cytochrome P450 2C8 (clones 7b and 7c) expressed in yeast (protein)
chain: MEPFVVLVLCLSFMLLFSLWRQSCRRRKLPPGPTPLPIIGNMLQIDVKDICKSFTNFSKVYGPVFTVYFGMNPIVVFHGYEAVKEALIDNGEEFSGRGNSPISQRITKGLGIISSNGKRWKEIRRFSLTNLRNFGMGKRSIEDRVQEEAHCLVEELRKTKASPCDPTFILGCAPCNVICSVVFQKRFDYKDQNFLTLMKRFNENFRILNSPWIQVCNNFPLLIDCFPGTHNKVLKNVALTRSYIREKVKEHQASLDVNNPRDFMDCFLIKMEQEKDNQKSEFNIENLVGTVADLFVAGTETTSTTLRYGLLLLLKHPEVTAKVQEEIDHVIGRHRSPCMQDRSHMPYTDAVVHEIQRYSDLVPTGVPHAVTTDTKFRNYLIPKGTTIMALLTSVLHDDKEFPNPNIFDPGHFLDKNGNFKKSDYFMPFSAGKRICAGEGLARMELFLFLTTILQNFNLKSVDDLKNLNTTAVTKGIVSLPPSYQICFIPV

Key:
[1] = target: cytochrome P450 2C9, allelic variant clone 65 (Ile359) (human)
[2] = target: cytochrome P450 2C9, allelic variant clone 25 (Leu359) (human)
[3] = Mephenytoin 4'-hydroxylase assay, recombinant human CYP2C yeast microsomes (Table III); type: biochemical; details: for Mephenytoin 4'-Hydroxylase Activity S: recombinant yeast microsomes + P450 reductase, phospholipid, cytochrome b5 2:1, 0.4 mM substrate, HEPES pH 7.4, 37° C. 30 min, means ± SE; for R/S Ratio: with cytochrome b5
Description: (§1) Purified or recombinant yeast microsomes (10-50 pmol) were preincubated with dilauroylphosphatidylcholine (15 μg per 50 pmol P450), P450 reductase (500 U per 50 mol P450), and human cytochrome b5 (2:1 molar ratio when added). The reconstituted mixture was preincubated for 5 min at 37° C., and then placed on ice. A final concentration of 0.4 mM radiolabelled S- or R-mephenytoin (20.7 mCi/mM and 20.9 mCi/mMol) was added to 50 mM HEPES buffer (pH 7.4) containing 0.1 mM EDTA and 1.5 mM MgCl2 for recombinant 2C proteins. The mixture was then incubated at 37° with shaking for 3 min, and the reaction started with the addition of 2mM NADPH and terminated after 30 min with an equal volume of methanol. […] Reaction volumes were generally 0.25 ml except when the volume of recombinant purified cytochrome or yeast microsomes was greater than 50 μl. In these cases, the volume was increased to 0.5 ml to limit the volume of glycerol from the purified preparation to <4% of the final volume.

[4] = as above; type: biochemical; details: recombinant yeast microsomes + P450 reductase, phospholipid, cytochrome b5 2:1; 0.4 mM substrate, HEPES pH 7.4, 37° C. 30 min; means ± SE
Description: as §1

[5] = Mephenytoin 4'-hydroxylase assay, purified recombinant P450 2C in reconstituted system (Table IV); type: biochemical; details: for R/S Ratio / Mephenytoin 4'-Hydroxylase Activity S: purified P450, reconstituted system; for Mephenytoin 4'-Hydroxylase Activity S / Mephenytoin 4'-Hydroxylase Activity R: triplicate, means ± SE, blank not subtracted
Description: Recombinant yeast microsomes were prepared from a 10-12 l culture, and recombinant P450s were purified by aminooctylsepharose chromatography as described by Iwasaki et al., J. Biol. Chem. 226:3380-3382 (1991). The Emulgen was then removed from protein by adsorption of the protein to a 4 g hydroxylapatite column (Hypatite C, Clarkson Chemical Company, Williamsport, Pa.) equilibrated with 10 mM potassium phosphate buffer (pH 7.2), 20% glycerol, 0.1 mM EDTA, and 0.1 mM DTT and washing the column with the same buffer until the absorbance at 280 nm returned to zero. The P450 was then eluted with […], and dialyzed overnight against 100 mM potassium phosphate buffer (pH 7.4, 20% glycerol and 0.1 mM EDTA. Absolute and CO difference spectra of purified P450s were determined in the same buffer but containing 0.2% Emulgen and 0.5% cholate.
Mephenytoin 4'-hydroxylase activity was measured by a modification of the radiometric HPLC assay described by Shimada et al., J. Biol. Chem. 261:909-921 (1986), as described below. Purified or recombinant yeast microsomes (10-50 pmol) were preincubated with dilauroylphosphatidylcholine (15 μg per 50 pmol P450), P450 reductase (500 U per […] P450), and human cytochrome b5 (2:1 molar ratio when added). The reconstituted mixture was preincubated for 5 min at 37° C., and then placed on ice. A final concentration of 0.4 mM radiolabelled S- or R-mephenytoin (20.7 mCi/mM and 20.9 mCi/mMol) was added to 50 mM HEPES buffer (pH 7.4) containing 0.1 mM EDTA and 1.5 mM MgCl2 for recombinant 2C proteins. The mixture was then incubated at 37° with shaking for 3 min, and the reaction started with the addition of 2mM NADPH and terminated after 30 min with an equal volume of methanol. Cytochrome b5 was not included in all CYP2C18 reactions, since it had no effect or produced a slight inhibition on the activity of this CYP protein. Reaction volumes were generally 0.25 ml except when the volume of recombinant purified cytochrome or yeast microsomes was greater than 50 μl. In these cases, the volume was increased to 0.5 ml to limit the volume of glycerol from the purified preparation to <4% of the final volume.
At the end of the incubation period, the reactions were terminated with an equal volume of methanol. The incubation mixture was centrifuged at 10,000 g for 10 min and an aliquot assayed directly using HPLC without extraction. Samples with particularly low activity were concentrated by lyophilization and redissolved in a small volume of methanol:water (1:1) before assay. The HPLC system consisted of a reverse phase C18 (10 μm) Versapak, 300 mm×4.1 mm column (Altech Associates, Deerfield, Ill.) using an isocratic solvent consisting of methanol:water (45:55) with a flow rate was kept of 1 ml/min for 25 min. Detection of radioactive peaks was accomplished using an on-line Flow-One radiochemical detector (Radiomatic Instruments Co., Tampa, Fla. Detection of the unlabeled 4'-hydroxymephenytoin authentic standard was performed using an on-line multiwavelength UV detector at both 211 and 230 nm.
Recombinant P450s were purified from yeast microsomes and assays performe

[6] = Tolbutamide hydroxylase assay, recombinant human CYP2C yeast microsomes (Table V); type: biochemical; details: for Tolbutamide Hydroxylase Activity (nmol/min/mg protein) / Tolbutamide Hydroxylase Activity (nmol/min/nmol P450): 1 mg yeast microsomal protein + purified P450 reductase (1,000 units); for Tolbutamide Hydroxylase Activity (nmol/min/mg protein): means ±SE
Description: Tolbutamide hydroxylase activity was measured according to Knodell et al., J. Pharmacol. Exper. […] Yeast microsomes (1 mg protein) were preincubated with 300 pmol hamster P450 reductase in 0.2 ml of the incubation buffer (below) for 3 min at 37° C. The reaction was then placed on ice and incubated in 0.2 ml of 50 mM HEPES buffer (pH 7.4) containing 1.5 mM MgCl2, 0.1 mM EDTA in a final volume of 1 ml and 1 mM sodium tolbutamide. The reaction was initiated with 0.5 mM NADPH. Human liver microsomes (0.22 mg protein) were incubated without reductase. Incubations with reconstituted recombinant P450s contained 50 pmol purified P450 enzyme, 150 pmol P450 reductase, and 15 μg dilauroylphosphatidyl-choline, and were performed in 100 mM potassium phosphate buffer (pH 7.4). Reactions were terminated after 60 min at 37° C. by the addition of 50 μl of 4N HCl, followed by extraction with 3 ml of water-saturated ethyl acetate. The ethyl acetate extracts were dried under nitrogen at 40° C., the residue resolubilized in 200 μl methanol, and 4-hydroxytolbutamide then assayed using HPLC by injecting 50 μl of the solubilized extract onto a μBONDAPAK C18 column (4.6×300 mm) using 0.05% phosphoric acid, pH 2.6: acetonitrile (6:4, v/v) as the mobile phase with a flow rate of 1 ml/min. The column eluate was monitored at 230 nm and rates of product formation were determined from standard curves prepared by adding varying amounts of 4-hydroxytolbutamide to incubations conducted without NADPH. […] Samples were analyzed in triplicate.

[7] = Tolbutamide hydroxylase assay, purified recombinant P450 2C (Table IV); type: biochemical; details: purified P450, reconstituted; blank (22 ± 5) subtracted; means ± SE
Description: Tolbutamide hydroxylase activity was measured according to Knodell et al., J. Pharmacol. Exper. Ther. 241:1112-1119 (1987), with several modifications. Yeast microsomes (1 mg protein) were preincubated with 300 pmol hamster P450 reductase in 0.2 ml of the incubation buffer (below) for 3 min at 37° C. The reaction was then placed on ice and incubated in 0.2 ml of 50 mM HEPES buffer (pH 7.4) containing 1.5 mM MgCl2, 0.1 mM EDTA in a final volume of 1 ml and 1 mM sodium tolbutamide. The reaction was initiated with 0.5 mM NADPH. Human liver microsomes (0.22 mg protein) were incubated without reductase. Incubations with reconstituted recombinant P450s contained 50 pmol purified P450 enzyme, 150 pmol P450 reductase, and 15 μg dilauroylphosphatidyl-choline, and were performed in 100 mM potassium phosphate buffer (pH 7.4). Reactions were terminated after 60 min at 37° C. by the addition of 50 μl of 4N HCl, followed by extraction with 3 ml of water-saturated ethyl acetate. […] The column eluate was monitored at 230 nm and rates of product formation were determined from standard curves prepared by adding varying amounts of 4-hydroxytolbutamide to incubations conducted without NADPH. […] Samples were analyzed in triplicate.

Row | Molecule | metabolism of tolbutamide [1] | metabolism of tolbutamide [2] | rate of S-hydroxylation higher than that of R-hydroxylation ([3]; recombinant yeast microsomes) | stereospecificity of 4'-hydroxylation of mephenytoin ([3]; recombinant yeast microsomes (Table III)) | Mephenytoin 4'-Hydroxylase Activity S [3] | Mephenytoin 4'-Hydroxylase Activity S ([3]; listed as 2C19) | R/S Ratio ([3]; recombinant yeast microsomes) | Mephenytoin 4'-Hydroxylase Activity R [4] | R/S Ratio [5] | Mephenytoin 4'-Hydroxylase Activity S [5] | S-mephenytoin 4'-hydroxylation turnover number higher than that of recombinant 2C9, 2C18 or 2C8 ([5]; purified, reconstituted system) | stereospecificity of 4'-hydroxylation of mephenytoin ([5]; purified, reconstituted system (Table IV)) | Mephenytoin 4'-Hydroxylase Activity R [5] | S-mephenytoin 4'-hydroxylase turnover number higher than reported for P450MP purified from human liver ([5]; versus Srivastava et al. (1991)) | S-mephenytoin 4'-hydroxylation turnover number higher than that of human liver microsomes ([5]; versus human liver microsomes) | Tolbutamide Hydroxylase Activity (nmol/min/mg protein) [6] | tolbutamide hydroxylase activity compared with 2C9 ([6]; recombinant yeast microsomes, in words) | Tolbutamide Hydroxylase Activity [7] | Tolbutamide Hydroxylase Activity (nmol/min/nmol P450) ([6]; adjusted for P450 content) | turnover number for tolbutamide higher than the Leu^359 allele ([6]; recombinant microsomes, adjusted for P450 content)
1 | exogenous P450 reductase (enzyme) | > 10 fold | > 10 fold |  |  |  |  |  |  |  |  |  |  |  |  |  |  |  |  |  | 
2 | B1 |  |  | at least 30 fold | stereospecific | 4.6 ± 0.3 nmol/min/nmol P450 | ~ 5 nmol/min/nmol P450 | 0.03 | 0.014 ± 0.02 nmol/min/nmol P450 | 0.03 | 6.17 ± 0.24 nmol/min/nmol P450 | 50-100 times | stereospecific for the S-enantiomer | 0.19 ± 0.04 nmol/min/nmol P450 | ~ 30 times | at least 10 times | 18.4 ± 2.4 nmol/min/mg protein | comparable to that of 2C9 |  |  | 
3 | B2 |  |  |  |  | 0.043 ± 0.000 nmol/min/nmol P450 |  | 0.9 | 0.041 ± 0.005 nmol/min/nmol P450 | 0.77 | 0.081 ± 0.006 nmol/min/nmol P450 |  |  | 0.063 ± 0.003 nmol/min/nmol P450 |  |  |  |  | 122 + 29 pmol/min/nmol P450 | 3.4 ± 0.15 nmol/min/nmol P450 | 3 fold
4 | B3 |  |  |  |  | 0.037 ± 0.001 nmol/min/nmol P450 |  | 0.4 | 0.016 ± 0.001 nmol/min/nmol P450 | 0.4 | 0.057 ± 0.009 nmol/min/nmol P450 |  |  | 0.023 ± 0.004 nmol/min/nmol P450 |  |  | 8.5 ± 0.2 nmol/min/mg protein |  | 12 ± 4 pmol/min/nmol P450 | 0.11 ± 0.003 nmol/min/nmol P450 | 
